Measured values reported in article PMC13031426.

Target: Complex III (cytochrome bc1 complex) dimer of the ΔQCR6 yeast supercomplex (Saccharomyces cerevisiae) (UniProt P07143)
Assay: cryo-EM structure

stoichiometry N: 2
Substance: Complex III (cytochrome bc1 complex) dimer of the ΔQCR6 yeast supercomplex (from UniProt P07143 62-309)
